The record followed here is US20110105397A1, “METHOD FOR TREATING HEART FAILURE WITH STRESSCOPIN-LIKE PEPTIDES” (priority 2009, published 2011).

The target in assay [1] is T1, human corticotrophin releasing hormone receptor type 2 (CRHR2) (human, UniProt Q13324 1-411).
T1 sequence (looked up): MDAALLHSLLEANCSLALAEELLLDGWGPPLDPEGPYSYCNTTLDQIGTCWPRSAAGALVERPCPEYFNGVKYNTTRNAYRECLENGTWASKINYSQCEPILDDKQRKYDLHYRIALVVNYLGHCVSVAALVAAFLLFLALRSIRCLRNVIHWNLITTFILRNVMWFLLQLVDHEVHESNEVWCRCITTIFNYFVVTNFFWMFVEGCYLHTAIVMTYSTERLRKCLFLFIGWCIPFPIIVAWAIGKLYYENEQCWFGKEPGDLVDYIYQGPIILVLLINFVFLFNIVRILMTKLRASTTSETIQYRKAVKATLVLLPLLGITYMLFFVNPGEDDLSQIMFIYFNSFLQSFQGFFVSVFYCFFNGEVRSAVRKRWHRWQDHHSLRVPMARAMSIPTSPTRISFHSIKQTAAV
Briefly: cell-based or functional assay.

The target of assay [2] is T1, human corticotrophin releasing hormone …. Put plainly: cell-based or functional assay. This is another data set of the same source.
Assay [3] addresses T2, human corticotrophin releasing hormone receptor type 2 (CRHR2) (human) (UniProt Q13324).
T2 sequence (looked up): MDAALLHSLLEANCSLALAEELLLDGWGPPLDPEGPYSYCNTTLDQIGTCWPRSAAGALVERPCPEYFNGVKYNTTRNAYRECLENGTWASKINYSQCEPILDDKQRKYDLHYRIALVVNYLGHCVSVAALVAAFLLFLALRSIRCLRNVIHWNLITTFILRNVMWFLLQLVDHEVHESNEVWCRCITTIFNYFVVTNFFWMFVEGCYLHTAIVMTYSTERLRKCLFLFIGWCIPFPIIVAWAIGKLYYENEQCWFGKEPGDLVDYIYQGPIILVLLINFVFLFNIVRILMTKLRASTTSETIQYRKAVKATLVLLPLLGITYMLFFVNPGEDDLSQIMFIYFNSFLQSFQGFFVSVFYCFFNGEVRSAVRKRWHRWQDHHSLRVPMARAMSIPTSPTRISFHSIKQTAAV
Briefly: radioligand competition against [125I]-anti-sauvagine-30, membranes of SK-N-MC cells with human CRHR2.

For assay [4], the target named is T3, human corticotrophin releasing hormone receptor type 1 (CRHR1) (human, UniProt P34998 24-415).
T3 sequence (looked up): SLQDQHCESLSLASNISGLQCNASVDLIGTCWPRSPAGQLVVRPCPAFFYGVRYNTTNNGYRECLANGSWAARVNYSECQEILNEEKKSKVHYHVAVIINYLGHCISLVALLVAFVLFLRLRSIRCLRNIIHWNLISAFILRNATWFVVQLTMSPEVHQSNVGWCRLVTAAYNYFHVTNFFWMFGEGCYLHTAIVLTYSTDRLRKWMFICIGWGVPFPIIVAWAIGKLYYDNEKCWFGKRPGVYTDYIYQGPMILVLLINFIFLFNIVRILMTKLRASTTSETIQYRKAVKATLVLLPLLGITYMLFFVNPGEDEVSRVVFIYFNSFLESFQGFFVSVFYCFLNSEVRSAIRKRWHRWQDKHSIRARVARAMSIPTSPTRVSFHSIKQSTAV
Briefly: cell-based or functional assay.

Assay [5] concerns the target T2, human corticotrophin releasing hormone receptor type 2 (CRHR2) (human). Put plainly: radioligand competition against [125I]-anti-sauvagine-30, CRHR2 membranes.
In assay [6] the target is T3, human corticotrophin releasing hormone …. Briefly: radioligand competition against [125I]-(Tyr0)-sauvagine, CRHR1 assay, cell membranes. As for the experimental part:
Frozen cell pellets were defrosted on ice in 15 ml of assay buffer that was composed of 10 mM HEPES, 130 mM NaCl, 4.7 mM KCl, 5 mM MgCl₂, and 0.089 mM bacitracin at pH 7.2 and 21±3° Celsius. The solution was then homogenized with a Polytron tissue grinder at a setting of 10 and 7×3 s (Brinkmann Instruments, Westbury, N.Y.). The homogenate was centrifuged at 4° Celsius at 800×g for 5 min with the pellet being discarded. The supernatant was re-centrifuged at 26,892×g for 25 min at 4° Celsius with the final pellet being re-suspended in assay buffer. All binding assays were conducted in 96-well Multiscreen GF/B filter plates (Millipore, Billericay, Mass., U.S.A.) that were pre-soaked in assay buffer with 0.3% PEI for 1 hour. […]
The bound radioactivity was separated by filtration using a Multiscreen Resist manifold (Millipore Corp., Billerica, Mass., U.S.A). The filters were washed three times with ice-cold PBS at pH 7.5 and radioactivity retained on the filters was quantified by its liquid scintillation measured by a TopCount counter (Packard BioScience, Boston, Mass., U.S.A). […]
Data from individual competition curves were expressed as the percentage of specific [¹²⁵I]-anti-sauvagine-30 or)[¹²⁵I]-(Tyr⁰-sauvagine binding (B) within each experiment.

Assay [7] deals with T2, human corticotrophin releasing hormone receptor type 2 (CRHR2) (human). Briefly: cell-based or functional assay.
For assay [8] the target is unchanged. Put plainly: cell-based or functional assay. This is another data set of the same source.

Like-named read-outs stand apart in the source and are kept apart here. Where no end group is shown, it is not given here. A value given as a limit tells only on which side of the number the result lay.

Regarding TKFTLSLDVPTNIMNLLFNIAKAKNLRAQAAANAHLMAQI-OH [non-amidated h-SCP], the “fold decrease in potency against the amidated parent peptide, cAMP” value in assay [1] is approximately 200 fold. In addition, in assay [2], the pA50 was 7.1 -log10(M).

B1: Human stresscopin with amidated C-terminus (peptide)
peptide: TKFTLSLDVPTNIMNLLFNIAKAKNLRAQAAANAHLMAQI-NH2
notes: 40-amino-acid peptide; also called h-SCP
In the case of B1, the pKI in assay [3] is 5.71 -log10(M). In assay [4], the pA50 was < 5 -log10(M). In addition, the pIC50 (low affinity state) in assay [5] is 6.6 -log10(M). Also, the pKI in assay [6] was 4.6 -log10(M). Besides, in assay [7], the A50 (concentration required for 50% maximum effect), cAMP came out at 0.4 nM; the control pA50 across assay batches is 9.47 to 9.74 -log10(M); the pA50 was 9.4 -log10(M).
For the molecule DDPPLSIDLTFHLLRTLLELARTQSQRERAEQNRIIFDSV-NH2 [r-UCN1], the pKI in assay [3] is 8.51 -log10(M). For the same molecule, the pA50 in assay [4] was 9.19 -log10(M); in assay [8], 9.08 -log10(M).
